Experimental data: the DeepSol protein solubility set

Assay: soluble on expression in E. coli; label from the status in PepcDB or PDB records

Row | Sequence | soluble on expression in E. coli
1 | MELKLIPIEKPENLNVILGQAHFIKTVEDLHEALVTAVPGIRFGLAFSEASGKRLVRRSGTDEALVELAVKNLLNLACGHVFLIVLGEGFYPINVLHAVKACPEVVRIYAATANPLKVVVAEEGEQRAILGVMDGFTPLGVEDEAEVAWRKDLLRRLGYKL | soluble
2 | MKTNKKDEETGGNVYAHLDKTSVLQEARAFNETPINARKCCFILSKLIYIIQQGESIGRTEATEAFFGVTKLWQSKDVSLRRMVYLAVKELAEVSDDVIIVTSSLTKDMTGREDLYRAAAIRALCKITDTGMLQTIERYMKQAIVDRNSAISSSAIVSSIHLMRKSSEVVRRWANEVQEAVSSDNHMVQYHALALLYQIRANDRLAVNKLVQKFSKNALRSPYAVCYLIRIATRCLVDDDQPDSSVFTFIESCLRHKSEMVVYEAARAIVSLPQTTPSEIQPAITALQMCCTSPKAAVRFAAVRTLNKVAMAHPNAVMSCNVDLEKFITDPNRSIATLAITTLLKTGAESSVERLMQQIAGFVNEISDEFKIVVVDAIRSLCSRYPRKHTVMMPFLAKMLRSDGSYDYKKAIVETIIAIIEENPDAKVAGLAHLCEFIEDCEHDNLSTRVLHLLGREAPKTPNPSSYIRFIYNRVILESTKVRAAAVTALAKFGAQCVDLRPSIQVLLKRCLLDSDDEVRDRATFYLKMLTEAAEGLIHNFILDGLQVSPSGLERSILDYLRSGSYSSPFDLRVVPVTQQALSQPEKRVPQLVEEEEKPKAPKVEPYAAQLAAIPQFAALGPVFKSSTRIALTESIAEYTVHMIKHTFANAMVLQFECKNTMNDQLLLDVSVELEDPDGEWETGNTVQIDKLPYGEVHSAFSLLEFPDSGAISGSLGAILKFKVMDVDPTSGEPDSDDTYEQTYVLEEVDVNVSDSVQGVAKSSFGSAWEALGDDATREETFQLSTVENIPDAVKKISEILGLVPCERSDRVPEGKTQHTVFLSGVFRGGYDVLSKATVAVDPNDNSIAMNIIIKSNEPLVADLVISAVV | not soluble
3 | MSLSANFSENISRLGLSSRSKQEKLAHLMETELTHLQASFIEAPTGLGKTYGYLLPILASGKGLVVSTATKVLQKQLVNDVAPKLGKTFGLKMAKIVGTKNYISLRKFSELLLNNTDGKNFEIFKMKILIWLTETRTGELDEVSKVMTNDDYFEVIRHDGYVNTKQLHYEQDFWLKAQKEAEQAEIKVVNHAYLIERLADYPETFLENRVLVVDEAQQLFPIMENAGQKSLKITDELIKIDAETSENPQLTKRLQESLVFQLNKKELDLNKIKIDADELGLRNLSALLEADNQIVWRENGMLYASDQDFYNFERLIPKNTKLFMLGATLSLSKDKPSFPDLLGFTDYRFFKIEGNQATNQQLLTVTDAPNIKNLSLIDYADYTANSIGELSKLNLPMVVLFTSKMALTFVAEKLSAEGFEILAQDINGSPAQIKKKFDKGEGKILLGLGSFWEGVDFDKQNQVILVIPRLPFATPDDILTKKYAQKFENPFYDFNVPMATLKLRQAIGRVNRRKNQYSSIVVLDKRLAGKSYAKRMRKNLSETLPVKMLNLLDTISEIKNFLIEGHHHHHH | not soluble
4 | QVQLQQPGAELVKPGASVKLSCKASGYTFTSDWIHWVKQRPGHGLEWIGEIIPSYGRANYNEKIQKKATLTADKSSSTAFMQLSSLTSEDSAVYYCARERGDGYFAVWGAGTTVTVSSAKTTPPSVYPLAPGSAAQTNSMVTLGCLVKGYFPEPVTVTWNSGSLSSGVHTFPAVLQSDLYTLSSSVTVPSSSWPSETVTCNVAHPASSTKVDKKIVPRD | soluble
5 | MGSDKIHHHHHHIETYNPAEVTFPENVAKVLIVNNAVPQPEDAGYEYTLQGERQDTCKAKADSALFDACRTLGEAIVEASYFNDVLLYHDAVRKDNQAFLDTKLTQGQVASLCDETGADAVISIDRLLFDMKKSVGTLGEGYVMGMIDVQMAGVIRSYVPDREAPLATVHMKDSIYWAESADYMPILDKVLPSPENALRGAGKYFGAKVYANFVPHWEKETRWYFTGMGSRWKEASAYAANEKWDMAEDRWSGLYRGTENWKSRAKAASNLALCHEMRGALKEAYEWAHKSYDLFKRNNGDNDKSTKLLELYVQALAERIRSDKKLNVQFGED | not soluble
6 | MAKKTSSKGKLPPGPLPLPGLGNLLHVDFQNTPYCFDQLRRRFGDVFSLQLAWTPVVVLNGLAAVREALVTHGEDTADRPPVPITQILGFGPRSQGVFLARYGPAWREQRRFSVSTLRNLGLGKKSLEQWVTEEAACLCAAFANHSGRPFRPNGLLDKAVSNVIASLTCGRRFEYDDPRFLRLLDLAQEGLKEESGFLREVLNAVPVDRHIPALAGKVLRFQKAFLTQLDELLTEHRMTWDPAQPPRDLTEAFLAEMEKAKGNPESSFNDENLRIVVADLFSAGMVTTSTTLAWGLLLMILHPDVQRRVQQEIDDVIGQVRRPEMGDQAHMPYTTAVIHEVQRFGDIVPLGMTHMTSRDIEVQGFRIPKGTTLITNLSSVLKDEAVWEKPFRFHPEHFLDAQGHFVKPEAFLPFSAGRRACLGEPLARMELFLFFTSLLQHFSFSVPTGQPRPSHHGVFAFLVSPSPYELCAVPRHHHH | soluble
7 | MGSDKIHHHHHHMRISANFDGGNIETISLANPDDIQLAIRPDAGGEFYQWFNFRFEATIGKTYTLNILNAGGASYLKGWEDYQAVASYDRQTWFRLPTEYKDGKLSISVELDCEAIQIAYFTPYSYERHLDLISAVQLHPLVSTEHLGLTLDGRDMTLVKVGDDDPSKKSIWITARQHPGETMAEWLVEGLLNQLLDNDCPTSKALLDKANFYIVPNMNPDGSVRGHLRTNAVGANLNREWQTPSLERSPEVYYVVNKMHETGVDLFYDVHGDEGLPYVFLAGCEGIPNYSDKLASLQQDFVAALSLASADFQTEFGYDKDEPGKANLTVACNWVANTFKCLSNTLEMPFKDNANLADPFQGWSPERSVYFGEASLIAMRAVIDKIGQ | not soluble
8 | MKFRSTALVKGFRQSAPYVNAHRDKTVVIMLGGEAIADPNFANIVNDIALLNSLGLRIVIVYGTRPQMRSLLKQTEHHAPFHKGIRITDEQTLELVKQIAGQLQLDITARLSMSLNNTPMAGAQINVISGNFVIAQPLGVDDGIDYCHSGRVRRIDTQGINRMLDQQSIVLLGPVASSVTGECFNLLSEDVATQLAIRLNADKLIGFCSEQGVLNEKGQILAELFPSEAEEILQRLEKELTPENGKLTGTMRFLKGAISACKAGVPRSHLISYKEDGALIQELFSFDGIGTQVVMASSEQVRDAEIDDIGGILDLIRPLEEEGILVRRSREQLEQEIAQFTIIEKDGLVIACAALYPFPEEGMAEMGCVAVHPDYRDGDRGVTLLNRLRSKAKQFKLSQLFVLTTRSLHWFREQGFIEVDVSHLPIKKQKLYNFQRKSKILVLKGL | not soluble
9 | MGSDKIHHHHHHMDKEEQYLLFALSTPMEVLYIGNEPSHTSPAMYTGIPAVDLSDSWGIDNREDLIQTIYRMTDDGHAADLAPFYIRWFTLSPRQWREFTAQFGEQGQIYARFVAETALCCGRGGIKAWDYVRMGFLCRMGVLNQWLTEEESLWLQSRIYARAYYFYDGWTQYFAAYSLGRLYWQAKGDTIQAYFAHLKYDASGARMFNELASTTESYYAQLPWRPLNEQPTCPETLKGVSDL | not soluble
10 | AHHHHHHGSKFPKNFMFGYSWSGFQFEMGLPGSEVESDWWVWVHDKENIASGLVSGDLPENGPAYWHLYKQDHDIAEKLGMDCIRGGIEWARIFPKPTFDVKVDVEKDEEGNIISVDVPESTIKELEKIANMEALEHYRKIYSDWKERGKTFILNLYHWPLPLWIHDPIAVRKLGPDRAPAGWLDEKTVVEFVKFAAFVAYHLDDLVDMWSTMNEPNVVYNQGYINLRSGFPPGYLSFEAAEKAKFNLIQAHIGAYDAIKEYSEKSVGVIYAFAWHDPLAEEYKDEVEEIRKKDYEFVTILHSKGKLDWIGVNYYSRLVYGAKDGHLVPLPGYGFMSERGGFAKSGRPASDFGWEMYPEGLENLLKYLNNAYELPMIITENGMADAADRYRPHYLVSHLKAVYNAMKEGADVRGYLHWSLTDNYEWAQGFRMRFGLVYVDFETKKRYLRPSALVFREIATQKEIPEELAHLADLKFVTRK | not soluble
11 | MILLLLLFILGSVSPDELISTRCQAQCLHLMDQRLQNNMELRKTLKHHIIQLCKEDATCSACSAPCREQFDDIKACKKSCVASDDRETCEDSCHYLQRIYQEKPGACPSVSNQSNYECSALCQMDGECPETQKCCSSGCSRQCLKPRSSDIKLLPIPRNISVQERKRKRSIIIRWATGRLSKAQQNENANLFLVQWRWGLHADESAMTEWQTVTVRNKPYAILKHLLSPGRFYEFRTAAVSQEGSLGFSSPSKPFKISKEAKAPPPPKDLSLGASKVVASGLWNQMVHWNPPPSDLPIKNYQISWASSTKSEADAFEEQMRKKSTLEFAAHEKRSLQSDDDEEFIGIQERDRQSVVVPSHATSSEITGLFPNSVYLVEIHASVDSSDGELHGEKGVVFIRTADSLSAVPEDREPYTGPKARIAHGSEELKIEASLKDLKTSSHAPNRPNSPQPAHLEIQTPFFDTELQTQLNWLNAAHCTPAKRQFSVKVRKTLCREYQPNHHSDTRWHDLRVTDCSALLKGLSFDCDYKVEVTDTLTGDFVVDGVFSTDTCDQTSSLTPIDCSSVTTPIQCQVTSESSAHCHWTRHHDAMQTVIGYRILLSSPINHDTNTTINQPQLREVRYENLAPGYVYTVEVQSITNKGLGRTVSTQFVTHPDLDSNAIQRFPGGEIIELPLESSGKLSIFSIFSSFFLVLLLRLL | not soluble
12 | MGSDKIHHHHHHMIKQVNPHFKEFLFDWNQKFQFLVGGYGSSKSYHVALKIVLKLLREKRTALVIREVYDTHRDSTFSLFDELVSDLKLDHIVRCVSSPMQIRFSNGSRIIFKGMDKPAKLKSINNISLIWIEECSEVKYEGFKELLGRLRHPTLPLHMILSTNPVGEDNWTFKHFFKDDREKRFVLDDKELYEKRIIVSNDTYYHHSTADDNLFLPESYVQQLEELKEYDPDLYRIARKGHFGVNGIRVLPQFEERPHEEVMTAISNINRPLKRVGMDFGFVESYNAVVRVAVDHEKKYLYIYWEYYKNGLTDDKTAEELKEFAETKELIKADSAEPKTIRYFQQHGFNMVGARKYQGSRLQYTKKIKRFRKIICSDRCENTIYELKPLAYATDKLGNIIEDEFTIDPHTLSAIWYALDDYEVTDLKEESKGRPQRSRPGRR | not soluble
13 | MLLSLYIPPGRPLSDVMTLLRQEYSITDNIKLKRTRQAVKRALSAAMDRLQMLTSTPPNGLVLFCGEDMSTGKFECFMFSPPEPIRVFYYRTDKRFITDFLEDMVEDNNAIGIIIVERDQATIGLLKGARLEVLKELEGFVPGKHKMGGQSQRRYERIIEQMVDEFFKKVGEEASNLLVPLAEKGVLKGVIVAGPGLAKQEFVEGNYLDYRLKKILAPELVDVAYQGLQGLKEAVMKAEKVVEAQMYRDAVNAMEEFKLHLAKGTGMIVYGEKDVEAALEMGAVKTLLIHESREDLEEWVEKAKSSGAQVIVVPESLAEAEWFLKTFGGLAGILRFRISTV | soluble
14 | MSLTTSFQDTEFFENQIFNTGKYNCLILRTAMNVLREHANLDIVYGGRAIRQLIYETVDTISAMEGVDKKATWLKLISLCDQFRKTGQESLSLAEYTEDFNFESIALQVDAFSLFAKPHDFQVFSVFLEDSEKGKLATILSSLTQKFSNKSRFKICQALLERGQISSSSATELYDEFIQSKVDDTEAIDFQNRLAEVSLKTIREMIFSKTREEDTEMRTASDSSVSPFLRLNAISSLRDIKDAHEKILIDMAIIFLLFDPREETVELLNAIVKRLSSYAMLEHIFCTCFNDQGTELESHSLSKPENSVFWISVADKFPALKQLINGGDMAGAFDYLVEKLDKSYDEVILNVVIELLNRGNGEVVRKNYIKSLNPNRLIDRILIGLVYLLTDDVDNFRATFEDFAETLLLQNEQNKTDAPLEDRLNYKKEVSDLLNAVFASSSNPAAQKSNYYHTLFALAKSQAKVLRHRSHENIISPNSTSSAEAKFIKAALLFEQKAISYLKQVVKSEHLKFNLDDAYLNVYELGLYLQDYKSVYESLQNLSPVADEYDYNYLMKRYLSRLISQGSISTIFPPNDNKLYRDNYLLIDSVLLDLANNELVLASALTFYEYLYSWRLLGSATKVDPTELTDKRGAAEALYMFITRFKLEQPDLLSSTSEQSEDIKQYKLKVLELYLMILNCLQSFESIEDQWLVKSQTNDSLAVVKLNEITLEYYNWLKEIKDEEGHHHHHH | not soluble
